Data on 4 molecules can be found in patent US20130260436A1, “Methods of Identifying and Characterizing Natural Product Gene Clusters” (Victoria LInk Limited, priority 2010, published 2013).

Data set [1] has as its system BpsA, single module non-ribosomal peptide synthetase of Streptomyces lavendulae ATCC 11924, purified recombinant 6His-tagged protein (apo form).
Data set [2] has as its system wild type BpsA reporter expressed in E. coli BL21(DE3) from a pCDFDuet-based plasmid (slBPSA).
Data set [3] relates to E. coli harbouring an activating PPTase. The data set is described as follows: In vivo pigment synthesis activity of BpsA derivatives relative to wild type BpsA. Conditions: E. coli, supernatant A590. It counts as cell-based. An excerpt: A detailed description of the method used for generation of mBpsA derivatives is given in Section 4.15. Briefly, a plasmid containing bpsA lacking its native T-domain (pBPSA3) was created. This plasmid contained restriction enzyme sites which were subsequently used to introduce foreign T-domain sequence. Foreign T-domains were then amplified from the chromosomal DNA of their host organisms and introduced into pBPSA3 to generate mBpsA derivatives which contained T-domains from foreign NRPS proteins in place of the native T-domain. Only the final embodiment of the T-domain swapping platform is described in this application. This embodiment is the result of rational in-silico design as well as trial and error, which are not described. Using this final platform, five different mBpsA derivatives were generated and subsequently assessed for in vivo pigment synthesis capacity in E. coli harbouring an activating PPTase. Table 3.1 gives a summary of the mBpsA derivatives generated as well as their in vivo pigment synthesis activities relative to wild type BpsA. The derivation of in vivo pigment synthesis activity was as described in 4.10.
For second tier screening, up to 45 improved clones, along with a positive and negative control, were stored as duplicate glycerol stocks in a 96wp. From this plate duplicate overnight cultures were established in LB supplemented with 0.4% glucose and appropriate antibiotics. […] Overnight cultures were grown for 16-20 h (37° C. 200 rpm) before transfer of 20 μl of each culture into a fresh well containing 130 μL LB supplemented with 115 mM L-Gln, 0.6 mM IPTG and appropriate antibiotics. Assay plates set up in this fashion contained duplicate cultures for each clone from two separate overnights. Assay plates were then wrapped in foil and incubated for 6-24 h (18° C., 200 rpm), depending on activity of improved clones. After incubation cells were collected at the corner of each well by centrifugation and OD 590 values determined using a microplate reader. Assays were repeated at least twice before determination of clones for sequence analysis.
In vivo pigment synthesis efficiencies for recombinant BpsA proteins described in Section 3.2 were derived from three separate assays. This was necessary due to the fact that pigment synthesis of wild type BpsA saturate before activity of mBpsA derivatives was detectable. Replicate cultures for determination of in vivo pigment synthesis activity were established from overnight starter cultures in a 96 wp as described in Section 4.9.3 The values presented are derived as follows: quadruplicate values for WT BpsA and oBpsA (mutant with reduced activity) were determined after 3 h, at which point pigment production was not saturated for WT. A separate quadruplicate assay was then run to obtain a value for slEntF by comparison to oBpsA after 12 h. Quadruplicate values for slPsT and slPvdD2 were then obtained in a separate assay by comparison to slEntF after 12 h.

As for “PP1183, putative phosphopantetheinyl transferase of Pseudomonas putida KT2440”, in data set [1], the Km (BpsA as variable substrate), BpsA coupled indigoidine assay came to 8.6 µM; the kcat (BpsA as variable substrate), BpsA coupled indigoidine assay came out at 0.185 s⁻¹; the kcat/Km (BpsA as variable substrate), BpsA coupled indigoidine assay stood at 21500 M⁻¹ s⁻¹. Also, the “production of indigoidine on co-expression in E. coli BL21(DE3)” value in data set [2] is “co-expression of BpsA with any of the three PPTases selected (Sfp, PcpS and PP1183) resulted in substantial production of indigoidine”.

Take “Sfp, phosphopantetheinyl transferase of Bacillus subtilis subsp. spizizenii ATCC6633”: in data set [1], the Km (BpsA as variable substrate), BpsA coupled indigoidine assay was determined as 3.3 µM; the kcat (BpsA as variable substrate), BpsA coupled indigoidine assay amounted to 0.0357 s⁻¹; the kcat/Km (BpsA as variable substrate), BpsA coupled indigoidine assay was 10800 M⁻¹ s⁻¹. Further, the “production of indigoidine on co-expression in E. coli BL21(DE3)” value in data set [2] was “co-expression of BpsA with any of the three PPTases selected (Sfp, PcpS and PP1183) resulted in substantial production of indigoidine”.

B1: slPsT1: mBpsA with T-domain from pspph1926 gene of P. syringae 1448a; SEQ ID NO: 9 (protein)
chain: MTLQETSVLEPTLQGTTTLPGLLAQRVAEHPEAIAVAYRDDKLTFRELASRSAALADYLEHLGVSADDCVGLFVEPSIDLMVGAWGILNAGAAYLPLSPEYPEDRLRYMIENSETKIILAQQRLVSRLRELAPKDVTIVTLRESEAFVRPEGTEAPAARSARPDTLAYVIYTSGSTGKPKGVMIEHRSIVNQLGWLRETYAIDRSKVILQKTPMSFDAAQWEILSPANGATVVMGAPGVYADPEGLIETIVKHNVTTLQCVPTLLQGLIDTEKFPECVSLQQIFSGGEALSRLLAIQTTQEMPGRALINVYGPTETTINSSSFPVDPADLDEGPQSISIGSPVHGTTYHILDKETLKPVGVGEIGELYIGGIQLARGYLHRDDLTAERFLEIELEEGAEPVRLYKTGDLGQWNNDGTVQFAGRADNQVKLRGYRVELDEISLAIENHDWVRNAAVIVKNDGRTGFQNLIACIELSEKEAALMDQGNHGSHHASKKSKLQVKAQLSNPGLRDDAELAARPAFDLEGAEPTPEQRARVFARKTYRFYEGGAVTQADLLGLLGATVTAGYSRKAADLAPAELGQILRWFGQYISEERLLPKYGYASPGALYATQMYFELEGVGGLKPGYYYYQPVRHQLVLISEREATGKATAQIHFIGKKSGIEPVYKNNILEVLEIETGHMVGLFEQILPAYGLDIHDRAYEPAVKDLLDVADEDYYLGTFELVPHAGARDDQAEVYVQTHGGKVAGLPEGQYRYENGELTRFSDDIVLKKHVIAINQSVYQAASFGISVYSRAEEEWLKYITLGKKLQHLMMNGLNLGFMSSGYSSKTGNPLPASRRMDAVLGANGVDSAPMYFFVGGRISDEQIGHEGMREDSVHMRGPAELIRDDLVSFLPDYMIPNRVVVFDRLPLSANGKIDVKALAASDQVNAELVERPHVAPRTEFEQRLAALWEQVLQVERVGLNDNFFALGGHSLLAVSLAGRIRETFDVSIKLHDFLLMQTLGELADFMRREVAQESSRFVRLHAETGKARPVICWPGLGGYPMNLRSLAGEIGLGRSFYGVQSYGINEGETPYETITEMAKKDIEALKEIQPAGPYTLWGYSFGARVAFETAYQLEQAGEKVDNLFLIAPGSPKVRAENGKVWGREASFANRGYTTILFSVFTGTISGPDLDRCLETVTDEASFAEFISELKGIDVDLARRIISVVGQTYEFEYSFHELAERTLQAPISIFKAVGDDYSFLENSSGYSAEPPTVIDLDADHYSLLREDIGELVKHIRYLLGE
For B1, in data set [3], the “Relative activity (in vivo pigment synthesis relative to wild type BpsA)” value was approximately 5%.

B2: slPvdD2: mBpsA with T-domain from second module of pvdD of P. aeruginosa PAO1; SEQ ID NO: 7 (protein)
chain: MTLQETSVLEPTLQGTTTLPGLLAQRVAEHPEAIAVAYRDDKLTFRELASRSAALADYLEHLGVSADDCVGLFVEPSIDLMVGAWGILNAGAAYLPLSPEYPEDRLRYMIENSETKIILAQQRLVSRLRELAPKDVTIVTLRESEAFVRPEGTEAPAARSARPDTLAYVIYTSGSTGKPKGVMIEHRSIVNQLGWLRETYAIDRSKVILQKTPMSFDAAQWEILSPANGATVVMGAPGVYADPEGLIETIVKHNVTTLQCVPTLLQGLIDTEKFPECVSLQQIFSGGEALSRLLAIQTTQEMPGRALINVYGPTETTINSSSFPVDPADLDEGPQSISIGSPVHGTTYHILDKETLKPVGVGEIGELYIGGIQLARGYLHRDDLTAERFLEIELEEGAEPVRLYKTGDLGQWNNDGTVQFAGRADNQVKLRGYRVELDEISLAIENHDWVRNAAVIVKNDGRTGFQNLIACIELSEKEAALMDQGNHGSHHASKKSKLQVKAQLSNPGLRDDAELAARPAFDLEGAEPTPEQRARVFARKTYRFYEGGAVTQADLLGLLGATVTAGYSRKAADLAPAELGQILRWFGQYISEERLLPKYGYASPGALYATQMYFELEGVGGLKPGYYYYQPVRHQLVLISEREATGKATAQIHFIGKKSGIEPVYKNNILEVLEIETGHMVGLFEQILPAYGLDIHDRAYEPAVKDLLDVADEDYYLGTFELVPHAGARDDQAEVYVQTHGGKVAGLPEGQYRYENGELTRFSDDIVLKKHVIAINQSVYQAASFGISVYSRAEEEWLKYITLGKKLQHLMMNGLNLGFMSSGYSSKTGNPLPASRRMDAVLGANGVDSAPMYFFVGGRISDEQIGHEGMREDSVHMRGPAELIRDDLVSFLPDYMIPNRVVVFDRLPLSANGKIDVKALAASDQVNAELVERPYRAPGSELEQRIAAIWAEILGVERVGLDDNFFELGGHSLLLLMLKERIGDTCQATLSISQLMTHASVAEQAACIEREVAQESSRFVRLHAETGKARPVICWPGLGGYPMNLRSLAGEIGLGRSFYGVQSYGINEGETPYETITEMAKKDIEALKEIQPAGPYTLWGYSFGARVAFETAYQLEQAGEKVDNLFLIAPGSPKVRAENGKVWGREASFANRGYTTILFSVFTGTISGPDLDRCLETVTDEASFAEFISELKGIDVDLARRIISVVGQTYEFEYSFHELAERTLQAPISIFKAVGDDYSFLENSSGYSAEPPTVIDLDADHYSLLREDIGELVKHIRYLLGE
Turning to B2, the “Relative activity (in vivo pigment synthesis relative to wild type BpsA)” value in data set [3] is approximately 5%.
